We go through one molecule from patent US20250313625A1 (ELPISCIENCE SUZHOU BIOPHARMA, published 2025).

Usually Kd stands for the constant that tells how readily two partners part at equilibrium. Low values mean higher affinity, high ones lower affinity. As a reminder, the koff is the first-order rate constant of dissociation. The low end stands for a long-lived complex, the high end for a short-lived complex. As a reminder, the kon is the second-order rate constant of association. Usually EC50 stands for the concentration at which the effect is half-maximal. The low end stands for a more potent agent, the high end for a less potent agent. As usually defined, the IC50 is the concentration that inhibits the measured activity by half.

The target in experiment [1] is T1, human LAG3 (form used in Octet, Biacore and HDX-MS not given) (human, UniProt P18627 23-450, limits assumed).
T1 sequence (looked up): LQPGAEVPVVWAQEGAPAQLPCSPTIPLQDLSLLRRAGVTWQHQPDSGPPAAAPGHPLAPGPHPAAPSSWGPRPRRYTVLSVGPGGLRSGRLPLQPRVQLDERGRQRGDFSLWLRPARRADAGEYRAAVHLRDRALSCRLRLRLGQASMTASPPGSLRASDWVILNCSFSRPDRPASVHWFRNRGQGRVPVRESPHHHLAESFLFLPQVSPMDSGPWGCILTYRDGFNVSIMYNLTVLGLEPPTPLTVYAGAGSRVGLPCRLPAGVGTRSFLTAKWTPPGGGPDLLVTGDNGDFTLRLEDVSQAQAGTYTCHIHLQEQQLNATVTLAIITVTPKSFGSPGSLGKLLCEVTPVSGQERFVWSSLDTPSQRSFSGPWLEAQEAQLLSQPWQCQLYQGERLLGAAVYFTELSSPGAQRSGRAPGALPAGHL
As to the kind of experiment: BLI (Octet), 1:1 fit. Here is the method: The purified chimeric antibodies were characterized for binding affinity against human LAG3 using Bio-Layer Interferometry technology (Octet system). The association and dissociation curves were fit with 1:1 binding model, and the Ka/Kd/KD values for each antibody were calculated.
For orientation: BLI is a label-free optical method that tracks binding on a fibre tip over time.

In experiment [2] the target is T2, human LAG3, full length, stably expressed on cells (human, UniProt P18627 23-525).
T2 construct: whole, on cells; also called CHOK1-human LAG3
T2 sequence (looked up): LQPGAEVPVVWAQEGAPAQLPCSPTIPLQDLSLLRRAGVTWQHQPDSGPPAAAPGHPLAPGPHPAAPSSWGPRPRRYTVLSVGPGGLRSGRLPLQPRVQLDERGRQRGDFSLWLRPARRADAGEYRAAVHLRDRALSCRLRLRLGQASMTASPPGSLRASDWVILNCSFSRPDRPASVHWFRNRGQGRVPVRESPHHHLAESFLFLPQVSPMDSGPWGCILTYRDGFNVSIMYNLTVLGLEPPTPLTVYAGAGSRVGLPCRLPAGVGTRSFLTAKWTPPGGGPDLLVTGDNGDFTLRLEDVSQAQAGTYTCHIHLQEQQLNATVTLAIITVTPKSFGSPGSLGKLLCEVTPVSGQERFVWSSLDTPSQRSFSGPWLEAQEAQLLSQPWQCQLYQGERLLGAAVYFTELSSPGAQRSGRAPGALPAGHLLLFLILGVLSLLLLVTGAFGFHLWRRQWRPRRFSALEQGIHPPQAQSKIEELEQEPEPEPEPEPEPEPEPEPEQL
As to the kind of experiment: FACS on 293F cells stably expressing human LAG3. Here is the method:
Briefly the antibodies were incubated with 2×10⁵ target cells at 4° C. for 1 hour. After washing, fluorescence labeled anti-mouse IgG 2nd antibody (Life Technologies) was added and incubated at 4° C. for 1 hour. Geometric median fluorescence intensity (MFI) was detected and EC₅₀ was calculated using GraphPad Prism9.0.
MFI was detected and EC₅₀ was calculated using GraphPad Prism9.0.

The target of experiment [3] is T2, human LAG3, full length, stably …. As to the kind of experiment: competitive FACS format III: His-FGL1 binding to 293F-human LAG3 cells. Here is the method: (§1) After washing, HRP labeled anti-His 2nd antibody (Sigma) was added and incubated at 37° C. for 1 hour. Then, 100 μl/well of TMB solution (Biotechnology) was added. After incubation for 15 minutes at room temperature, the reaction was stopped by the addition of 50 μl of 1N HCl. OD 450 nm was read. […] After washing, HRP labeled anti-SA 2nd antibody (Sigma) was added and incubated at 37° C. for 1 hour. Then, 100 μl/well of TMB solution (Biotechnology) was added. After incubation for 15 minutes at room temperature, the reaction was stopped by the addition of 50 μl of 1N HCl. OD 450 nm was read. […] The competition assay of format III is a competitive FACS assay. […] After washing, dye labeled anti-His 2nd antibody (Sigma) was added and incubated at 37° C. for 1 hour. Fluorescence intensity was detected.

In experiment [4] the target is T3, hFc tagged human LAG3 ECD recombinant protein (human, UniProt P18627 23-450).
T3 construct: range 23-450; also called biotin labelled hFc tagged human LAG3 ECD; not shown: human IgG Fc tag
T3 sequence (looked up): T1 sequence (looked up)
As to the kind of experiment: competitive ELISA format II: biotin hFc-LAG3 ECD binding to coated His-FGL1. Here is the method:
as §1

Experiment [5] concerns the target T4, mFc tagged human LAG3 ECD recombinant protein (human, UniProt P18627 23-450).
T4 construct: extracellular domain; purchased from Biointron; not shown: mouse IgG Fc (mFc) tag
T4 sequence (looked up): T1 sequence (looked up)
As to the kind of experiment: competitive ELISA: mFc tagged human LAG3 ECD binding to plate coated LSECtin ECD. Here is the method: Activity of the purified chimeric antibodies to block LAG3 and LSECtin interaction was determined by competitive ELISA assay. […] After washing, HRP labeled anti-mouse Fc 2nd antibody (Sigma) was added and incubated at 37° C. for 1 hour. Then, 100 μl/well of TMB solution (Biotechnology) was added. After incubation for 15 minutes at room temperature, the reaction was stopped by the addition of 50 μl of 1N HCl. OD 450 nm was read.
(In general: An ELISA detects its analyte on a solid surface through an enzyme-linked reagent.)

Experiment [6] concerns the target T3, hFc tagged human LAG3 ECD recombinant …. As to the kind of experiment: competitive ELISA format II: biotin labeled hFc tagged LAG3 ECD binding to plate coated His tagged human FGL1; 023c run beside 027c and 047c. Here is the method: as §1

B1: 023c (antibody, human IgG4, V domains shown)
VH: QIQLVQSGPVLKKPGETVKISCKASGYTFTESPMNWVKQAPGRGFKWMGMIYTDTGEPTYAEEFKGRFAFSLETSASTAYLQINNLKSEDTATYFCVSDYGSILYWYFDVWGTGTTVTVSS
VL: DIVMTQSHKFMSTSVGDRVSITCKASQDVSTAVAWYQQTPGQSPKLLIYSASYRYTGVPDRFTGSGSGTDFTFTISSVQAEDLAVYYCQQHYNSPPTFGAGTKLELK
notes: human IgG4 S228P / kappa chimeric antibody; also called chimeric antibody 023; ES005-023c; not shown: human kappa light chain constant region (pcDNA3.4-hIgGk vector)
In experiment [1], B1 showed a Kd of 0.648 nM, a koff of 0.000233 s⁻¹ and a kon of 359000 M⁻¹ s⁻¹. Moreover, in experiment [2], the response was half-maximal at 0.26 nM (EC50) and the “TOP MFI” value turned out to be 3430. In experiment [3], the “Blocking ratio at 200 nM (%)” value was 29%. In addition, in experiment [4], the half-inhibitory concentration (IC50) turned out to be 1.5 nM and the “TOP blocking (%)” value is 82.8%. In experiment [5], the “%Blocking at 4 nM” value came to 27.8%, the “%Blocking at 20 nM” value amounted to 94.4% and the “%Blocking at 100 nM” value came out at 94.8%. Moreover, the “IC50 (read off the curve)” value in experiment [6] was approximately 0.3 µg/mL.
